Test results from publication doi:10.1101/2023.03.13.532366 (bioRxiv, 2023).

Molecular target: T1, biotinylated mIL-12Rβ2_(D1-D6)-Casp3-AviTag-His6 (mouse, UniProt P97378 24-637, biotin on the AviTag (in vitro biotinylation with BirA))
T1 sequence (looked up): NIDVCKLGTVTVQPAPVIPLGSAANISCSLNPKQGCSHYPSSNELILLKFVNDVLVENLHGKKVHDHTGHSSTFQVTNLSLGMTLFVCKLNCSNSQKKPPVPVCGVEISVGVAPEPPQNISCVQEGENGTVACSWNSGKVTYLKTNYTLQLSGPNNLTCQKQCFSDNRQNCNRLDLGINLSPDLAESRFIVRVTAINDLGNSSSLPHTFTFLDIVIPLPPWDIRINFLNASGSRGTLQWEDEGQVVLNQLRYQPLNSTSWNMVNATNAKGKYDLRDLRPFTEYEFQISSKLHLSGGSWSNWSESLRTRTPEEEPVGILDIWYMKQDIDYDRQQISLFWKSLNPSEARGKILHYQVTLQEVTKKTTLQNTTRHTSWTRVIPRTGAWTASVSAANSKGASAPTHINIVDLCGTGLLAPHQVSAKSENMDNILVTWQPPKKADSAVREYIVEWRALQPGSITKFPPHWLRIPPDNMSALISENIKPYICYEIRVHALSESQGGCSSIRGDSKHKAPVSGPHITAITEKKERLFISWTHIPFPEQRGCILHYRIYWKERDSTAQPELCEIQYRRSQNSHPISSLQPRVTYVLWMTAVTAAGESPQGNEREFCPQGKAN
Assay: BLI

B1: mIL-12 (mIL-12a-AviTag-His6 and untagged mIL-12b), analyte in BLI (complex, mouse)
chain 1: RVIPVSGPARCLSQSRNLLKTTDDMVKTAREKLKHYSCTAEDIDHEDITRDQTSTLKTCLPLELHKNESCLATRETSSTTRGSCLPPQKTSLMMTLCLGSIYEDLKMYQTEFQAINAALQNHNHQQIILDKGMLVAIDELMQSLNHNGETLRQKPPVGEADPYRVKMKLCILLHAFSTRVVTINRVMGYLSSA
chain 2: MWELEKDVYVVEVDWTPDAPGETVNLTCDTPEEDDITWTSDQRHGVIGSGKTLTITVKEFLDAGQYTCHKGGETLSHSHLLLHKKENGIWSTEILKNFKNKTFLKCEAPNYSGRFTCSWLVQRNMDLKFNIKSSSSSPDSRAVTCGMASLSAEKVTLDQRDYEKYSVSCQEDVTCPTAEETLPIELALEARQQNKYENYSTSFFIRDIIKPDPPKNLQMKPLKNSQVEVSWEYPDSWSTPHSYFSLKFFVRIQRKKEKMKETEEGCNQKGAFLVEKTSTEVQCKGGNVCVQAQDRYYNSSCSKWACVPCRVRS
B1: binds.
